Assay results as given in PMC2756588.

T1: Boi1, P38041
T1 sequence (P38041 1-86, looked up): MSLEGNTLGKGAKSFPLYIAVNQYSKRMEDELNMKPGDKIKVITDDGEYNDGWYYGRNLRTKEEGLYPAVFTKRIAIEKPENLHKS

T2: Fus1, P11710
T2 sequence (P11710 432-512, looked up): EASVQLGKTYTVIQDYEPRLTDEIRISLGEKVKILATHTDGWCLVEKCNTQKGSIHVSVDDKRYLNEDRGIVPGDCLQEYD

T3: Lsb1, P53281
T3 sequence (P53281 45-122, looked up): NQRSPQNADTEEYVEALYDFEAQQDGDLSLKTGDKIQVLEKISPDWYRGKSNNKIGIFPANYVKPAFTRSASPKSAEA

T4: Pin3, Q06449
T4 sequence (Q06449 53-122, looked up): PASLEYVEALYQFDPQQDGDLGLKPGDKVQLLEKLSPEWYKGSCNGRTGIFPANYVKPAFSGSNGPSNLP

T5: Lsb3, P43603
T5 sequence (P43603 385-451, looked up): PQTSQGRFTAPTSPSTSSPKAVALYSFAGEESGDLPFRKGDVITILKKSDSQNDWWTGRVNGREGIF

T6: Hse1, P38753
T6 sequence (P38753 208-285, looked up): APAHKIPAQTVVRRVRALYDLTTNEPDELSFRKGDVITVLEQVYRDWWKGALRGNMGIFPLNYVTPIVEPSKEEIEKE

T7: Sla1-3, P32790
T7 sequence (P32790 344-424, looked up): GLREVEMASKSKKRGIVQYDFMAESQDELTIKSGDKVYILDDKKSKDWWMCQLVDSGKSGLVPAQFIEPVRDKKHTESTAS

T8: Myo5, Q04439
T8 sequence (Q04439 1072-1160, looked up): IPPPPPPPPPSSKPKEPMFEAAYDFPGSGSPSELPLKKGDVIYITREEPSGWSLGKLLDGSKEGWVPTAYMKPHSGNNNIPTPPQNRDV

T9: Abp1, P15891
T9 sequence (P15891 535-592, looked up): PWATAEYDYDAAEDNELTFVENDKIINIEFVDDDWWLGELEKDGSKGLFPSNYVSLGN

T10: Hof1, Q05080
T10 sequence (Q05080 590-669, looked up): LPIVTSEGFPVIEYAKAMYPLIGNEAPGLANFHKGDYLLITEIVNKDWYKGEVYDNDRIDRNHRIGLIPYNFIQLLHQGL

T11: Bud14, P27637
T11 sequence (P27637 247-328, looked up): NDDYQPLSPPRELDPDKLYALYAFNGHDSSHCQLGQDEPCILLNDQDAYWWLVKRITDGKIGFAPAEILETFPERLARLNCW

T12: Pex13, P80667
T12 sequence (P80667 295-386, looked up): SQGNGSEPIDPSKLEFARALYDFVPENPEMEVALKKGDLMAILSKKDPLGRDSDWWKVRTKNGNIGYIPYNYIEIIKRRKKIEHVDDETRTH

T13: Lsb4, P32793
T13 sequence (P32793 402-468, looked up): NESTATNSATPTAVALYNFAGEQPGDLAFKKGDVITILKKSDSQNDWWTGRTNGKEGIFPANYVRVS

T14: Boi2, P39969
T14 sequence (P39969 32-116, looked up): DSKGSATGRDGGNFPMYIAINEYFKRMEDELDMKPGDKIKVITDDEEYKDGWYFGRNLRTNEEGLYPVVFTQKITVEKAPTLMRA

T15: Bzz1-2, P38822
T15 sequence (P38822 568-633, looked up): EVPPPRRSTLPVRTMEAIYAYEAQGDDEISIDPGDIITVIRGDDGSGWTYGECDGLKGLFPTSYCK

T16: Cdc25, P04821
T16 sequence (P04821 50-136, looked up): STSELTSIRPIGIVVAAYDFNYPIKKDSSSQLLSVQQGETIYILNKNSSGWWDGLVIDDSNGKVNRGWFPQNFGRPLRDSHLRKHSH

T17: Sla1-2, P32790
T17 sequence (P32790 60-140, looked up): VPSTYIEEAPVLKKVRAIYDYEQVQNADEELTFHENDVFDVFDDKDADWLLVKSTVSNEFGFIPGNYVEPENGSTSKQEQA

T18: Nbp2, Q12163
T18 sequence (Q12163 103-180, looked up): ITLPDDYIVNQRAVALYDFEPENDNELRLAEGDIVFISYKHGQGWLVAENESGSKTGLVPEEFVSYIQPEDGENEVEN

T19: Cyk3, Q07533
T19 sequence (Q07533 1-83, looked up): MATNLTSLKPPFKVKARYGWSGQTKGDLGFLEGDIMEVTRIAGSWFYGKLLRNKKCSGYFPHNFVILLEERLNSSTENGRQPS

T20: Bzz1-1, P38822
T20 sequence (P38822 478-572, looked up): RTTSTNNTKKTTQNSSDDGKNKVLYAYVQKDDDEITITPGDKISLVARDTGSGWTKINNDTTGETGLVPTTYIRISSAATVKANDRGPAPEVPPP

T21: Bbc1, P47068
T21 sequence (P47068 1-78, looked up): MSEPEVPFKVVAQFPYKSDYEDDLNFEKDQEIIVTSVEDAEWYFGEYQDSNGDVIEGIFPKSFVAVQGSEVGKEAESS

B1: unnamed (peptide)
chain: RFKRHRLEFPFNESE
B2: unnamed (peptide)
chain: SKSRLLIELPEGFFT
B3: unnamed (peptide)
chain: GKKVRPLLVLLLSRA
B4: unnamed (peptide)
chain: FHLNPKRSAVLYDRP
B5: unnamed (peptide)
chain: LLIRWLILMPLVGSR
B6: unnamed (peptide)
chain: ILARAILTIPRVLDK

target: Rvs167, P39743; experiment: SPOT array; conditions: median of control spots 2707
Sequence (P39743 419-482): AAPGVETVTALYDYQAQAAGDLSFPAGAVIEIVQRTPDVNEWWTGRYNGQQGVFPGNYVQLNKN

Binder	SPOT intensity
B1	0
B2	0
B3	0
B4	7
B5	1
B6	0

target: T1, Boi1, P38041; experiment: SPOT array; conditions: median of control spots 1162

Binder	SPOT intensity
B1	0
B2	1
B3	14
B4	0
B5	23
B6	0

target: T2, Fus1, P11710; experiment: SPOT array; conditions: median of control spots 1200

Binder	SPOT intensity
B1	34
B2	0
B3	4
B4	309
B5	168
B6	9

target: T3, Lsb1, P53281; experiment: SPOT array; conditions: median of control spots 388

Binder	SPOT intensity
B1	53
B2	0
B3	0
B4	0
B5	47
B6	23

target: T4, Pin3, Q06449; experiment: SPOT array; conditions: median of control spots 2171

Binder	SPOT intensity
B1	15
B2	4
B3	0
B4	32
B5	47
B6	107

target: Sho1, P40073; experiment: SPOT array; conditions: median of control spots 1148
Sequence (P40073 287-367): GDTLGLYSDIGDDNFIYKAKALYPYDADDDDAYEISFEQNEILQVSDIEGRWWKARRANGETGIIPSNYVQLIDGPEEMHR

Binder	SPOT intensity
B1	41
B2	10
B3	51
B4	35
B5	150
B6	137

target: T5, Lsb3, P43603; experiment: SPOT array; conditions: median of control spots 406

Binder	SPOT intensity
B1	0
B2	0
B3	6
B4	0
B5	6
B6	8

target: T6, Hse1, P38753; experiment: SPOT array; conditions: median of control spots 1727

Binder	SPOT intensity
B1	32
B2	0
B3	0
B4	40
B5	25
B6	5

target: Bem1-1, P29366; experiment: SPOT array; conditions: median of control spots 4282
Sequence (P29366 55-141): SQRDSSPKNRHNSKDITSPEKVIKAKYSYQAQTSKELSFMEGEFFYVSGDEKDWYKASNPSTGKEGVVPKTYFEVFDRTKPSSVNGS

Binder	SPOT intensity
B1	1
B2	0
B3	0
B4	245
B5	0
B6	1

target: T7, Sla1-3, P32790; experiment: SPOT array; conditions: median of control spots 5475

Binder	SPOT intensity
B1	97
B2	0
B3	0
B4	140
B5	7
B6	4

target: T8, Myo5, Q04439; experiment: SPOT array; conditions: median of control spots 471

Binder	SPOT intensity
B1	0
B2	0
B3	1
B4	1
B5	10
B6	3

target: T9, Abp1, P15891; experiment: SPOT array; conditions: median of control spots 935

Binder	SPOT intensity
B1	36
B2	0
B3	37
B4	24
B5	166
B6	189

target: T10, Hof1, Q05080; experiment: SPOT array; conditions: median of control spots 4086

Binder	SPOT intensity
B1	9
B2	0
B3	0
B4	83
B5	12
B6	0

target: Myo3, P36006; experiment: SPOT array; conditions: median of control spots 468

Binder	SPOT intensity
B1	0
B2	0
B3	7
B4	0
B5	34
B6	17

target: T11, Bud14, P27637; experiment: SPOT array; conditions: median of control spots 956

Binder	SPOT intensity
B1	4
B2	1
B3	9
B4	9
B5	29
B6	10

target: Bem1-2, P29366; experiment: SPOT array; conditions: median of control spots 4347
Sequence (P29366 139-227): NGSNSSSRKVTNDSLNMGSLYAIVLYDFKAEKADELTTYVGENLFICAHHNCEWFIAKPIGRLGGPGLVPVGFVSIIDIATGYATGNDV

Binder	SPOT intensity
B1	4
B2	0
B3	0
B4	308
B5	4
B6	0

target: T12, Pex13, P80667; experiment: SPOT array; conditions: median of control spots 1341

Binder	SPOT intensity
B1	13
B2	14
B3	19
B4	35
B5	78
B6	56

target: T13, Lsb4, P32793; experiment: SPOT array; conditions: median of control spots 397

Binder	SPOT intensity
B1	0
B2	0
B3	2
B4	0
B5	25
B6	38

target: T14, Boi2, P39969; experiment: SPOT array; conditions: median of control spots 1161

Binder	SPOT intensity
B1	0
B2	1
B3	4
B4	0
B5	4
B6	0

target: T15, Bzz1-2, P38822; experiment: SPOT array; conditions: median of control spots 4538

Binder	SPOT intensity
B1	7
B2	0
B3	0
B4	38
B5	7
B6	2

target: GST; experiment: SPOT array; conditions: median of control spots 978

Binder	SPOT intensity
B1	0
B2	0
B3	0
B4	5
B5	2
B6	0

target: T16, Cdc25, P04821; experiment: SPOT array; conditions: median of control spots 969

Binder	SPOT intensity
B1	142
B2	66
B3	132
B4	25
B5	176
B6	36

target: T17, Sla1-2, P32790; experiment: SPOT array; conditions: median of control spots 712

Binder	SPOT intensity
B1	0
B2	0
B3	0
B4	0
B5	3
B6	6

target: T18, Nbp2, Q12163; experiment: SPOT array; conditions: median of control spots 357

Binder	SPOT intensity
B1	14
B2	0
B3	10
B4	0
B5	215
B6	17

target: T19, Cyk3, Q07533; experiment: SPOT array; conditions: median of control spots 1451

Binder	SPOT intensity
B1	0
B2	0
B3	0
B4	0
B5	4
B6	0

target: T20, Bzz1-1, P38822; experiment: SPOT array; conditions: median of control spots 4446

Binder	SPOT intensity
B1	0
B2	1
B3	0
B4	3
B5	3
B6	0

target: T21, Bbc1, P47068; experiment: SPOT array; conditions: median of control spots 796

Binder	SPOT intensity
B1	36
B2	0
B3	67
B4	10
B5	339
B6	35
